Earlier results in patent publication US20250108009A1, “METHOD FOR SYNTHESIZING HYBRID NANOPARTICLES COMPRISING APOLIPOPROTEINS” (MEPSGEN CO., LTD., priority 2022, published 2025).

Conditions: Bekard et al. 2011

insulin
shear rate at which structural changes and aggregates are formed: 200 s⁻¹
shear stress at which structural changes and aggregates are formed: 1000 dyne/cm^2
